# In the RNAGym collection of RNA variant scans (doi:10.7554/elife.80360):
# B1: Twister Ribozyme (parent)
# chain: AACACUGCCAAUGCCGGUCCCAAGCCCGGAUAAAAGUGGAGGGGGCGG
# Variants of: B1
# Assay: self-cleavage, relative activity (ratio to wild type); higher = more cleavage; co-transcriptional
row,Variant,self-cleavage
1,U6A G39U,0.125
2,C5G A32U,0.515
3,C5G A32C,0.57
4,U6C U12A,0.663
5,U6C U12C,0.613
6,U6C U12G,0.465
7,U6A G36A,0.168
8,U6A G36C,0.136
9,U6C G28U,0.295
10,U6C G28A,0.319
11,U6C G28C,0.215
12,C5A G39U,0.0872
13,C5A G39A,0.161
14,C5A G39C,0.149
15,C5U A33C,0.652
16,C5U A33U,0.714
17,C5U A33G,0.631
18,U6G A30C,0.246
19,U6A G48C,0.84
20,U6A A34G,0.731
21,U6A A34C,0.859
22,C5U A32U,0.812
23,C5U A32C,0.887
24,C5U U18A,0.186

row,Variant,self-cleavage
1,C5U U18G,0.066
2,U6G C19G,0
3,U6G C19A,0.0816
4,U6G C19U,0.264
5,C5G U6C,0.16
6,U6A U37A,0.142
7,U6C C27U,0.275
8,U6C C27G,0.0742
9,C5G C14G,0.0784
10,C5G C14A,0.557
11,C5G G41C,0.114
12,C5G G41U,0.154
13,U6C C25A,0.108
14,U6G C14G,0.0983
15,U6G C14A,0.313
16,U6G G24C,0.356
17,U6G G24U,0.145
18,U6A U12G,0.903
19,U6A U12C,1.11
20,C5U A11G,0.77
21,C5U G29U,0.631
22,C5U G29C,0.454
23,C5U G47A,0.727
24,C5U G47C,0.315

row,Variant,self-cleavage
1,C5U G47U,0.691
2,C5G G7A,0.111
3,C5G G7U,0.0648
4,U6C A33G,0.429
5,U6A A32C,0.753
6,U6C G44U,0.502
7,U6C C21G,0.109
8,U6C C21A,0.0427
9,C5G G16A,0.341
10,C5U G39C,0.171
11,U6A G43U,0.245
12,U6A G43C,0.172
13,U6G A34U,0.493
14,C5U G38U,0.503
15,C5U G38A,0.695
16,C5U G38C,0.581
17,C5U C9U,0.337
18,C5U C9A,0.349
19,C5G G39A,0.197
20,U6C G42A,0.0608
21,U6G A33C,0.367
22,C5A G36C,0.519
23,U6G A40C,0.0854
24,U6G A40U,0.181

row,Variant,self-cleavage
1,C5G A22C,0.571
2,U6C A34C,0.18
3,U6C A34G,0.788
4,U6C A34U,0.333
5,C5G C21A,0.0944
6,C5G C21U,0.104
7,C5A G29U,0.51
8,U6A G7A,0.224
9,U6A G7U,0.101
10,C5U G48U,0.82
11,C5U G48A,0.639
12,U6C G36C,0.112
13,C5G G48C,0.77
14,C5G G48A,0.67
15,U6G C46U,0.632
16,U6G C46A,0.411
17,U6G C46G,0.406
18,C5G A35C,0.742
19,C5G A35G,0.696
20,C5U A34C,0.166
21,U6A C19G,0.0747
22,U6A C19A,0.0793
23,U6A C19U,0.539
24,C5G C9U,0.13

row,Variant,self-cleavage
1,U6A G16C,0.135
2,U6A G16A,0.604
3,U6A G16U,0.43
4,C5U U6C,0.691
5,U6C U37G,0.181
6,U6C G38C,0.249
7,U6C G38A,0.423
8,C5G G38C,0.219
9,C5G G38U,0.165
10,C5G C15U,0.467
11,C5G C15A,0.251
12,C5U G45U,0.423
13,C5U G45C,0.239
14,C5U G7C,0.0595
15,C5U G7A,0.147
16,C5U G7U,0.0676
17,C5G A30C,0.259
18,U6G A35G,0.281
19,U6C A35U,0.619
20,U6C A35G,0.832
21,C5G U37C,0.14
22,C5G U37G,0.519
23,U6C C19A,0.104
24,C5A G42C,0.184

row,Variant,self-cleavage
1,C5A G42A,0.132
2,U6C U31G,0.422
3,U6C U31C,0.712
4,U6C U31A,0.581
5,U6A A33U,0.828
6,U6A A33C,0.949
7,C5G C8G,0.0701
8,C5G C8U,0.294
9,C5U G44U,0.816
10,C5U G44A,0.748
11,U6A C21U,0.0948
12,U6A C21A,0.107
13,U6A C21G,0
14,C5A U31G,0.524
15,C5A U18A,0.118
16,C5A U18G,0.0654
17,C5G G24A,0.0701
18,U6G C21G,0.116
19,U6A C15G,0.0866
20,U6A C15A,0.358
21,U6A C9U,0.223
22,U6A C9A,0.153
23,U6C A23C,0.0308
24,U6C A23G,0.0715

row,Variant,self-cleavage
1,U6G C15A,0.301
2,U6G C15U,0.569
3,U6A G17U,0.101
4,U6G G36A,0.0942
5,C5G C19G,0.125
6,C5G C19A,0.0784
7,C5G C19U,0.504
8,C5A G48U,0.577
9,C5A G48A,0.539
10,U6A G28U,0.604
11,U6C C15G,0.1
12,U6C A10G,0.809
13,U6A A11G,0.897
14,U6A A11C,0.61
15,C5U C21G,0.0614
16,U6G G28A,0.138
17,U6G G28U,0.0702
18,U6G G28C,0.16
19,U6A G45A,0.911
20,U6A G45C,0.254
21,U6A G24A,0.116
22,U6C C8A,0.047
23,U6C C8G,0.0656
24,U6G G38A,0.315

row,Variant,self-cleavage
1,U6G G38C,0.168
2,U6C G45A,0.6
3,U6C G45U,0.495
4,U6C G45C,0.206
5,C5G A11C,0.298
6,C5U G36C,0.785
7,C5U G36A,0.852
8,C5U G24U,0.0614
9,U6A U18C,0.208
10,C5U A30U,0.752
11,C5U A30G,0.784
12,C5A G45U,0.413
13,C5U A35G,0.435
14,U6C G7U,0.0403
15,U6G A22G,0.106
16,U6G A22C,0.485
17,C5U A22G,0.113
18,U6C U18A,0.0773
19,U6G G7U,0.626
20,U6G G7A,0.501
21,U6C C14U,0.473
22,U6C C14A,0.504
23,U6G G16C,0.156
24,U6G G16U,0.296

row,Variant,self-cleavage
1,C5G G44A,0.642
2,C5G G44U,0.646
3,C5G G44C,0.678
4,U6A C20U,0.82
5,C5G C25G,0.0808
6,C5G C25A,0.0988
7,C5U C27A,0.21
8,C5U C27G,0.0666
9,U6C A22C,0.691
10,U6C A22G,0.0819
11,U6A G47U,0.441
12,U6A G47A,0.862
13,U6A G47C,0.296
14,U6G G17C,0.0484
15,U6G G17U,0.0541
16,U6G G17A,0.075
17,U6G C25U,0.252
18,U6G C25G,0.0804
19,C5G A33G,0.637
20,U6A G42U,0.163
21,U6A G42A,0.198
22,C5U C14A,0.673
23,C5U C14G,0.0879
24,C5U C14U,0.68

row,Variant,self-cleavage
1,U6A C25U,0.718
2,U6A C25A,0.0712
3,U6A C25G,0.121
4,C5G G42U,0.0923
5,C5G G42A,0.108
6,C5G G42C,0.226
7,U6A C26U,0.237
8,U6C C26U,0.0774
9,U6G C9A,0.279
10,U6G A32G,0.337
11,U6G A32C,0.419
12,C5G G45U,0.369
13,C5G G45A,0.475
14,C5U G17A,0.237
15,U6G G13C,0.078
16,U6G G13A,0.086
17,U6G G13U,0.0456
18,C5G G17U,0.0612
19,C5G G17C,0.0444
20,C5A G43A,0.1
21,C5A G43U,0.108
22,U6A A35U,0.992
23,U6A A35G,0.807
24,U6C A40C,0.11

row,Variant,self-cleavage
1,U6C A40U,0.119
2,C5G G13U,0.0419
3,U6C G48C,0.829
4,U6C G48U,0.607
5,U6G C27A,0.0375
6,U6G C27U,0.186
7,U6G C27G,0.0245
8,U6C G24U,0.0929
9,U6A A40C,0.15
10,U6A A40G,0.178
11,U6G C8U,0.16
12,U6G C8G,0.2
13,U6C G17U,0.072
14,U6G A11G,0.52
15,U6G A11C,0.173
16,U6A A10C,1.19
17,C5G G28A,0.354
18,C5G C20A,0.0467
19,U6A U31G,1.01
20,U6A U31A,0.717
21,U6A U31C,1.07
22,C5G G47U,0.521
23,C5G G47C,0.269
24,C5G C46G,0.915

row,Variant,self-cleavage
1,U6C A32C,0.349
2,U6C A32U,0.488
3,C5U C20U,0.816
4,C5U C20A,0.105
5,C5G C27U,0.445
6,C5G C27A,0.103
7,U6A A22G,0.0598
8,U6G G29A,0.19
9,U6G G29C,0.139
10,U6A C14A,0.866
11,U6A C14U,0.795
12,C5G G36U,0.724
13,C5U C19U,0.819
14,C5U C19A,0.145
15,C5A G47U,0.486
16,U6G A23C,0.0334
17,U6G A23G,0.0873
18,U6A A30C,0.428
19,U6A A30G,0.884
20,U6G C26A,0.0837
21,U6G C26U,0.0975
22,C5U C8U,0.398
23,C5U G28A,0.572
24,U6A G13U,0.129

row,Variant,self-cleavage
1,U6C A30C,0.0653
2,U6C A30G,0.477
3,C5G C26G,0.122
4,C5U G43U,0.2
5,C5U G43C,0.126
6,U6C C46G,0.589
7,U6C C46U,0.625
8,C5A U12G,0.42
9,C5G A10C,0.768
10,C5U G41U,0.221
11,C5U G41C,0.137
12,U6C G16U,0.371
13,C5U A40C,0.171
14,C5U A40G,0.133
15,U6C C20G,0.0668
16,U6G A10C,0.136
17,U6G A10G,0.644
18,C5U U31G,0.65
19,C5U U31A,0.577
20,C5U U31C,0.804
21,C5G A40U,0.0886
22,C5G A40C,0.198
23,C5G A40G,0.182
24,C5U G13A,0.417

row,Variant,self-cleavage
1,C5U G13U,0.157
2,C5U U12C,0.769
3,C5U U12G,0.763
4,U6C G41A,0.117
5,U6C G41C,0.13
6,U6C G41U,0.113
7,U6A G29C,0.335
8,C5U G16U,0.459
9,U6C C9A,0.0857
10,U6C G29C,0.173
11,C5A G44C,0.556
12,C5A G44A,0.556
13,C5A G44U,0.532
14,C5G U12G,0.768
15,C5A G41C,0.0838
16,U6A C8G,0.106
17,C5U C46A,0.764
18,C5A G38C,0.341
19,C5A G38U,0.0941
20,C5A G38A,0.206
21,C5U C25U,0.507
22,C5U C25G,0.149
